Test results taken from publication PMC5080983 (Nature communications, 2015).
Positions count from the first letter of the chain named. Where no end group is shown, it is not given here. [ ]: non-standard residue; d: D form. Arg(Me2a) = CN(C)C(=N)NCCC[C@H](N)C(=O)O; Arg(Me2s) = CN=C(NC)NCCC[C@H](N)C(=O)O; fluorescent label = not defined here

T1: histone H3 tail peptide (1–18) symmetrically dimethylated at Arg2 (H3R2me2s) (UniProt P68431 2-19)
T1 peptide (looked up): A[Arg(Me2s)]TKQTARKSTGGKAPRK

T2: histone H3 tail peptide (1–18) asymmetrically dimethylated at Arg2 (H3R2me2a) (UniProt P68431 2-19)
T2 peptide (looked up): A[Arg(Me2a)]TKQTARKSTGGKAPRK

T3: GST-PHD1 W335A of KDM5A (UniProt P29375 291-347, W335A)
T3 sequence (looked up): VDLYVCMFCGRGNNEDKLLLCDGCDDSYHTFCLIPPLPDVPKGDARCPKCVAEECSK

B1: GST-PHD1_(291–347) of KDM5A (domain or fragment, UniProt P29375 291-347, looked up)
chain: T3 sequence (looked up) with A45W

Legend:
Assay in all cases: fluorescence polarisation
[1] = target: T1, histone H3 tail peptide (1–18) …
[2] = target: T2, histone H3 tail peptide (1–18) …
GST-PHD1 W335A of KDM5A = target: T3, GST-PHD1 W335A of KDM5A

fold reduction of binding affinity against unmodified H3 [1]	fold reduction of binding affinity against unmodified H3 [2]	Kd (GST-PHD1 W335A of KDM5A)	Binder
~5 fold	~5 fold		B1
		> 100 µM	ARTKQTARKSTGGKAPRK-{fluorescent label} (peptide, UniProt P68431 2-19, looked up, reading uncertain) [histone H3 tail peptide H3_(1–18), unmethylated Lys4 (H3K4me0)]
